According to the RNAGym collection of RNA variant scans (doi:10.7554/elife.80360):

B1: Twister Ribozyme (parent)
chain: AACACUGCCAAUGCCGGUCCCAAGCCCGGAUAAAAGUGGAGGGGGCGG

Variants of: B1
Assay: self-cleavage, relative activity (ratio to wild type); higher = more cleavage; co-transcriptional

Compared with AACACUGCCAAUGCCGGUCCCAAGCCAGGAUAAAAGUGGAGCGGGCGG, AACACUGCCAAUGCCGGUCCCAAGCCAGGAUAAAAGUGGAGUGGGCGG is lower in self-cleavage: 0.139 for the first, 0.113 for the second.

Going from AACACUGCCAAUGCCGGUCCCAAGCCAGGAUAAAAGUGGAGGUGGCGG to AACACUGCCAAUGCCGGUCCCAAGCCAGGAUAAAAGUGGAGGGGCCGG, the self-cleavage rises from 0.122 to 0.144.

Going from AACACUGCCAAUGCCGGUCCCAAGCCAGGAUAAAAGUGGAGGGGGCCG to AACACUGCCAAUGCCGGUCCCAAGCCAGGAUAAAAGUGGAGGGGGCGA, the self-cleavage rises from 0.183 to 0.275.

Compared with AACACUGCCAAUGCCGGUCCCAAGCCAGGAUAAAAGUGGAGGGGGCGU, AACACUGCCAAUGCCGGUCCCAAGCCAGGAAAAAAGUGGAGGGGGCGG is higher in self-cleavage: 0.397 for the first, 0.676 for the second.

First: AACACUGCCAAUGCCGGUCCCAAGCCAGGAGAAAAGUGGAGGGGGCGG
Second: AACACUGCCAAUGCCGGUCCCAAGCCGGGUUAAAAGUGGAGGGGGCGG
The self-cleavage of the first is higher: 0.629 for the first, 0.0941 for the second.

Compared with AACACUGCCAAUGCCGGUCCCAAGCCGGGAUCAAAGUGGAGGGGGCGG, AACACUGCCAAUGCCGGUCCCAAGCCGGGAUUAAAGUGGAGGGGGCGG is lower in self-cleavage: 0.137 for the first, 0.115 for the second.

First: AACACUGCCAAUGCCGGUCCCAAGCCGGGAUACAAGUGGAGGGGGCGG
Second: AACACUGCCAAUGCCGGUCCCAAGCCGGGAUAUAAGUGGAGGGGGCGG
The self-cleavage of the first is lower: 0.0584 for the first, 0.0804 for the second.

Compared with AACACUGCCAAUGCCGGUCCCAAGCCGGGAUAACAGUGGAGGGGGCGG, AACACUGCCAAUGCCGGUCCCAAGCCGGGAUAAGAGUGGAGGGGGCGG is higher in self-cleavage: 0.0686 for the first, 0.124 for the second.

First: AACACUGCCAAUGCCGGUCCCAAGCCGGGAUAAUAGUGGAGGGGGCGG
Second: AACACUGCCAAUGCCGGUCCCAAGCCGGGAUAAACGUGGAGGGGGCGG
The self-cleavage of the first is lower: 0.0972 for the first, 0.104 for the second.

First: AACACUGCCAAUGCCGGUCCCAAGCCGGGAUAAAGGUGGAGGGGGCGG
Second: AACACUGCCAAUGCCGGUCCCAAGCCGGGAUAAAUGUGGAGGGGGCGG
The self-cleavage of the first is higher: 0.108 for the first, 0.0981 for the second.

Compared with AACACUGCCAAUGCCGGUCCCAAGCCGGGAUAAAAGUGGAGGGGGGGG, AACACUGCCAAUGCCGGUCCCAAGCCGGAAUAAAAGUGGAGGGGGCGG is lower in self-cleavage: 0.1 for the first, 0.0827 for the second.

First: AACACUGCCAAUGCCGGUCCCAAGCCGGCAUAAAAGUGGAGGGGGCGG
Second: AACACUGCCAAUGCCGGUCCCAAGCCGGGAUAAAACUGGAGGGGGCGG
The self-cleavage of the first is lower: 0.0656 for the first, 0.0945 for the second.

First: AACACUGCCAAUGCCGGUCCCAAGCCGGGAUAAAAGUAGAGGGGGCGG
Second: AACACUGCCAAUGCCGGUCCCAAGCCGGGAUAAAAGUCGAGGGGGCGG
The self-cleavage of the first is higher: 0.0803 for the first, 0.0767 for the second.

Compared with AACACUGCCAAUGCCGGUCCCAAGCCGGGAUAAAAGUUGAGGGGGCGG, AACACUGCCAAUGCCGGUCCCAAGCCGGGAUAAAAGUGCAGGGGGCGG is higher in self-cleavage: 0.093 for the first, 0.105 for the second.

Compared with AACACUGCCAAUGCCGGUCCCAAGCCGGGAUAAAAGUGGAAGGGGCGG, AACACUGCCAAUGCCGGUCCCAAGCCGGGAUAAAAGUGGACGGGGCGG is lower in self-cleavage: 0.0929 for the first, 0.0915 for the second.

Compared with AACACUGCCAAUGCCGGUCCCAAGCCGGGAUAAAAGUGGAUGGGGCGG, AACACUGCCAAUGCCGGUCCCAAGCCGGGAUAAAAGUGGAGUGGGCGG is lower in self-cleavage: 0.0753 for the first, 0.0711 for the second.

First: AACACUGCCAAUGCCGGUCCCAAGCCGGGAUAAAAGUGGAGGGAGCGG
Second: AACACUGCCAAUGCCGGUCCCAAGCCGGGAUAAAAGUGGAGGGGACGG
The self-cleavage of the first is lower: 0.0871 for the first, 0.0977 for the second.

Compared with AACACUGCCAAUGCCGGUCCCAAGCCGGGAUAAAAGUGGAGGGGCCGG, AACACUGCCAAUGCCGGUCCCAAGCCGGGAUAAAAGUGGAGGGGUCGG is lower in self-cleavage: 0.0921 for the first, 0.0905 for the second.

Compared with AACACUGCCAAUGCCGGUCCCAAGCCGGGAUAAAAGUGGAGGGGGCGA, AACACUGCCAAUGCCGGUCCCAAGCCGGGAUAAAAGUGGAGGGGGCGC is higher in self-cleavage: 0.102 for the first, 0.147 for the second.

Compared with AACACUGCCAAUGCCGGUCCCAAGCCGGGAAAAAAGUGGAGGGGGCGG, AACACUGCCAAUGCCGGUCCCAAGCCGGGAGAAAAGUGGAGGGGGCGG is lower in self-cleavage: 0.099 for the first, 0.0669 for the second.

Going from AACACUGCCAAUGCCGGUCCCAAGCCGGGAUAAAAGAGGAGGGGGCGG to AACACUGCCAAUGCCGGUCCCAAGCCUGGGUAAAAGUGGAGGGGGCGG, the self-cleavage rises from 0.106 to 0.777.

First: AACACUGCCAAUGCCGGUCCCAAGCCUGGUUAAAAGUGGAGGGGGCGG
Second: AACACUGCCAAUGCCGGUCCCAAGCCUGGAUCAAAGUGGAGGGGGCGG
The self-cleavage of the first is higher: 0.758 for the first, 0.755 for the second.

Compared with AACACUGCCAAUGCCGGUCCCAAGCCUGGAUUAAAGUGGAGGGGGCGG, AACACUGCCAAUGCCGGUCCCAAGCCUGGAUACAAGUGGAGGGGGCGG is lower in self-cleavage: 0.842 for the first, 0.764 for the second.

Going from AACACUGCCAAUGCCGGUCCCAAGCCUGGAUAACAGUGGAGGGGGCGG to AACACUGCCAAUGCCGGUCCCAAGCCUGGAUAAUAGUGGAGGGGGCGG, the self-cleavage rises from 0.0865 to 0.567.

Compared with AACACUGCCAAUGCCGGUCCCAAGCCUGGAUAAAGGUGGAGGGGGCGG, AACACUGCCAAUGCCGGUCCCAAGCCUGGAUAAAUGUGGAGGGGGCGG is higher in self-cleavage: 0.271 for the first, 0.775 for the second.

Compared with AACACUGCCAAUGCCGGUCCCAAGCCUGGAUAAAAGUGGCGGGGGCGG, AACACUGCCAAUGCCGGUCCCAAGCCUGGAUAAAAGUGGGGGGGGCGG is lower in self-cleavage: 0.159 for the first, 0.119 for the second.

Going from AACACUGCCAAUGCCGGUCCCAAGCCUGGAUAAAAGUGGUGGGGGCGG to AACACUGCCAAUGCCGGUCCCAAGCCUGGAUAAAAGUGGAGGGGGGGG, the self-cleavage rises from 0.164 to 0.914.
